Target: T1, HKU1 spike (2P-stabilized ectodomain with foldon) (HCoV-HKU1, isolate N5 (as in PDB 5I08), UniProt Q0ZME7, stabilised)
T1 construct: source: ExpiCHO or Freestyle 293F cells, purified
Assay: ELISA
Details: both partners purified

B1: Antibody 3A3, full-length (mouse variable region-human IgG1 constant region chimera) (antibody, V domains shown)
VH: QVQLQQSGAELLKPGASVKLSCTASGFNIKDTYIHWLKQRPEQGLEWIGRIGPAIGNTIYAPKFQGKATITTDTSSNTAYLQLSSLTSEDTAVYYCARYYGSSYYYFDYWGQGTTLTVSS
VL: DIVMTQSAPSVPVTPGESVSISCRSSKSLLHSNGNTYLYWFLQRPGQSPQLLIYRMSNLASGVPDRFSGSGSGTAFTLRISRVEAEDVGVYYCMQYLEYPLTFGAGTKLELK
binding result: binds

B2: Antibody RAY53, full-length human IgG1 (antibody, V domains shown)
VH: QVQLVQSGAVVLKPGASVKLSCKASGFNIKNTYIHWLKQAPGQRLEWIGRIGPAIGNTIYAPKFQGKATITTDTSASTAYLELSSLRSEDTAVYYCARYYGSSYYYLDYWGQGTTVTVSS
VL: DIVMTQSPLSVPVTPGEPVSISCRSSKSLLHSNGNTYLYWFLQKPGQSPQLLIARMSTLASGVPDRFSGSGSGTAFTLKISRVEAEDVGVYYCMQYLEYPLTFGAGTKLEIK
binding result: binds
